Tests used:
[1] = molecular target: FLAG-ySUMO-mT1r3 CTΔ (mouse); assay: SPR; Biacore 2000; ySUMO-fusion proteins amine-coupled on a CM5 chip, ySUMO on the reference cell; mCaM injected, 2-fold dilutions from 40 μM, +Ca2+ (1 mM CaCl2), 25°C, 30 μl/min; KD from equilibrium responses, 1:1 model
[2] = molecular target: FLAG-ySUMO-mT1r2 CTΔ (mouse); assay: as above
[3] = molecular target: FLAG-ySUMO-mT1r3 CTΔ (mouse); assay: SPR; Biacore 2000; ySUMO-fusion proteins amine-coupled on a CM5 chip, ySUMO on the reference cell; mCaM injected, 2-fold dilutions from 40 μM, -Ca2+ (1 mM EGTA), 25°C, 30 μl/min
[4] = molecular target: FLAG-ySUMO-mT1r2 CTΔ (mouse); assay: as above
[5] = molecular target: biotin-mT1r2 CT peptide (cytosolic C-terminal region of mouse taste receptor type 1 subunit 2) (mouse) (UniProt Q925I4); assay: SPR; Biacore 2000; biotinylated T1r peptides on a CAP chip (Biotin CAPture Kit); mCaM injected, 2-fold dilutions from 50 μM, -Ca2+ (1 mM EGTA), 25°C, 30 μl/min
biotin-mT1r2 CT peptide (cytosolic C-terminal region of mouse taste receptor type 1 subunit 2) (mouse), sequence (Q925I4 other isoform, or with tags, fused parts or gaps): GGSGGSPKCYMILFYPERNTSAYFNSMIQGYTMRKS

[6] = molecular target: biotin-mT1r1 CT peptide (cytosolic C-terminal region of mouse taste receptor type 1 subunit 1) (mouse) (UniProt Q99PG6); assay: as above
biotin-mT1r1 CT peptide (cytosolic C-terminal region of mouse taste receptor type 1 subunit 1) (mouse), sequence (Q99PG6 other isoform, or with tags, fused parts or gaps): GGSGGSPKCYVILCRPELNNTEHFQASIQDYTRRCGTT

[7] = molecular target: biotin-mT1r3 CT peptide (cytosolic C-terminal region of mouse taste receptor type 1 subunit 3) (mouse) (UniProt Q925D8); assay: as above
biotin-mT1r3 CT peptide (cytosolic C-terminal region of mouse taste receptor type 1 subunit 3) (mouse), sequence (Q925D8 other isoform, or with tags, fused parts or gaps): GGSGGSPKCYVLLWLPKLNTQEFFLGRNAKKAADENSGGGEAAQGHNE

[8] = molecular target: biotin-mT1r2 CT peptide (cytosolic C-terminal region of mouse taste receptor type 1 subunit 2) (mouse) (UniProt Q925I4); assay: SPR; Biacore 2000; biotinylated T1r peptides on a CAP chip (Biotin CAPture Kit); mCaM injected, 2-fold dilutions from 50 μM, +Ca2+ (1 mM CaCl2), 25°C, 30 μl/min; KD from equilibrium responses, 1:1 model
[9] = molecular target: biotin-mT1r1 CT peptide (cytosolic C-terminal region of mouse taste receptor type 1 subunit 1) (mouse) (UniProt Q99PG6); assay: as above
[10] = molecular target: biotin-mT1r3 CT peptide (cytosolic C-terminal region of mouse taste receptor type 1 subunit 3) (mouse) (UniProt Q925D8); assay: as above

“mouse calmodulin (from UniProt P0DP26 1-149) (natural protein)” showed a Kd [1] of 80 µM, a Req value at 40 μM mCaM injection [1] of 101 RU and a Kd [2] of 41 µM. For the same substance, the Req value at 40 μM mCaM injection [2] was 114 RU, the response at 40 μM mCaM injection [3] was 13 RU and the response at 40 μM mCaM injection [4] was 9.2 RU. The response at 50 μM mCaM injection [5] was 9.4 RU, the response at 50 μM mCaM injection [6] was 5 RU and the response at 50 μM mCaM injection [7] was 16 RU. It also gave a Req value at 50 μM mCaM injection [8] of 11 RU, a Req value at 25 μM mCaM injection [9] of 10.6 RU and a Req value at 50 μM mCaM injection [10] of 36.7 RU.
